# Assay results from patent US20230115257A1 (CURIA IP, published 2023).
# B1: 3-K11-A (antibody, V domains shown)
# VH: EVQLQQSGPELVKPGASVKMSCKASGYTFTSYVMHWVKQKPGQGLEWIGYINPYNDGTEYNEKFKGKATLTSDKSSSTAYMELSSLTSEDSAVYHCAREAYRYFDVWGTGTTVTVSS
# VL: DIQMTQSPASLSVSVGETVTITCRASENIYSNLAWYQQKQGKYPQLLVYGATNLADGVPSRFSGSGSGTQYFLKINSLQSEDFGSYYCQHFWGIPWTFGGGTKLEIK
# B2: 4-O14-B (antibody, V domains shown)
# VH: QVQLQQPGAELVKPGASVKLSCKASGYAFISHWMHWVRQRPGRGLEWIGRIDPNSSGSKDNEKFRSKATLTVDKPSSTAYMQLSSLTSEDSAVYYCARSPYYSNPYWYFDVWGAGTTVTVSS
# VL: EIVLTQSPALMAASPGEKVTITCSVSSSISSSNLHWYQQKSETSPKPWIYGTSNLASGVPVRFSGSGSGTSYSLTITNMEAEDAATYYCQQWSSYPFTFGSGTKLEIK
# B3: 9-G24-A (antibody, V domains shown)
# VH: QVQLQQSGAELVRPGASVKLSCKASGYTFTDYEMHWVKQTPVHGLEWIGVIDPETGDTAYNQKFKDKATLTADKSSSTAYMELRSLTSEDSAVYYCARRRDYGNPYWYFDVWGAGTAVTVSS
# VL: EIVLTQSPALMAASPGEKVTITCSASSSISSSNLHWYQQKSGTSPKPWIYGTSNLASGVPVRFSGSGSGTSYSLTISSMEAEDAATYVCQQWSNYPYTFGSGTKLEIK
# B4: 9-M12-A (antibody, V domains shown)
# VH: EVQLVESGGDLVKPGGSLKLSCTASGFTFSSYGMSWVRQTPDKRLEWVTTISSGGGYTYVPDSVKGRFTISRDNAKNTLYLHMSSLKSEDTAMYFCARPLIPTMVEAFDYWGQGTSLTVSS
# VL: SIVMTQTPKFLPVSAGDRVTMTCKASQSVGNNVAWYQQKPGQSPKLLIYYASNRYTGVPDRFTGSGSGADFTFTISSVQVEDLAVYFCQQHYSSPFTFGTGTKLEIK
# B5: 3-P17-A (antibody, V domains shown)
# VH: QVQLKQSGPGLVQPSQSLSITCTVSGFSLTSYGVHWVRQSPGKGLEWLGVIWSGGITDYNAGFISRLSISKDNSKSQVFFTMNSLQADDTAIYYCARIITTVLDQFADWGQGTLVTVSA
# VL: DIVLTQSPASLAVSLGQRATISCRASQSVSTSTYSYIHWYQQKPGQPPKLLIKYASNLESGVPARFSGSGSGTDFTLNIHPVEEEDTATYYCQHSWEIPPTFGAGTKLELK
# Columns and labels:
# [1] = target: T1, SARS-CoV-2 (WIV02 isolate) prefusion stabilized spike trimer protein (SARS-CoV-2 (WIV02 isolate), UniProt P0DTC2 14-1213); test: Table A: binding pattern against variant spike proteins
# T1 construct: also called WT; SARS-CoV-2 spike trimer
# [2] = target: T2, SARS-CoV-2 B.1.1.7 spike protein (SARS-CoV-2 B.1.1.7 (Alpha), UniProt P0DTC2 13-1213); test: as above
# T2 construct: also called alpha; SARS-CoV-2 B.1.1.7 spike trimer variant
# [3] = target: T3, SARS-CoV-2 P.1 spike protein (SARS-CoV-2 P.1 (Gamma), UniProt P0DTC2 13-1213); test: as above
# T3 construct: also called gamma; SARS-CoV-2 P.1 spike trimer variant
# [4] = target: T4, SARS-CoV-2 B.1.617.2 spike trimer variant (SARS-CoV-2 B.1.617.2 (Delta), UniProt P0DTC2 16-1213); test: as above
# T4 construct: also called delta; SARS-CoV-2 Delta Spike
# [5] = target: T5, SARS-CoV-2 BA.2 spike trimer variant (SARS-CoV-2 Omicron BA.2, UniProt P0DTC2 16-1213); test: as above
# T5 construct: also called Omicron BA.2
# [6] = target: T6, SARS-CoV-2 Beta (B.1.351) variant prefusion stabilized spike trimer protein (SARS-CoV-2 Beta (B.1.351), UniProt P0DTC2 14-1213); test: ELISA screens of hybridomas on WT, Alpha, Beta and Gamma spike
# T6 construct: also called SARS-CoV-2 B.1.351 spike protein; β spike
# [7] = target: T7, SARS-CoV-2 B.1.1.529 spike trimer variant (SARS-CoV-2 B.1.1.529 (Omicron), UniProt P0DTC2 16-1213); test: Table A: binding pattern against variant spike proteins
# T7 construct: also called omicron; Omicron B.1.1.529
# [8] = target: T6, SARS-CoV-2 Beta (B.1.351) variant …; test: Table A (reprint): binding pattern against variant spike proteins
binder,measurement,setting,value
B1,binding result,[1],no binding
same,binding result,[2],no binding
same,binding result,[3],no binding
same,binding result,[4],no binding
same,binding result,[5],no binding
B2,binding result,[6],binds
B3,binding result,[1],no binding
same,binding result,[2],no binding
same,binding result,[3],no binding
same,binding result,[4],no binding
same,binding result,[7],no binding
same,binding result,[5],no binding
B4,binding result,[1],no binding
same,binding result,[2],no binding
same,binding result,[3],no binding
same,binding result,[4],no binding
same,binding result,[7],no binding
same,binding result,[5],no binding
B5,binding result,[1],no binding
same,binding result,[2],no binding
same,binding result,[3],no binding
same,binding result,[4],no binding
same,binding result,[7],no binding
same,binding result,[5],no binding
same,binding result,[8],binds
